{
  "source": "patent US20260167721A1",
  "about": "(ABLEXIS, published 2026)",
  "binders": {"B1": {"name": "CD3 × CD33-BspAb62 (bispecific antibody)", "scFv-Fc": "NFMLTQPHSVSESPGKTVTISCTRSSGSIASNYVQWYQQRPGSSPTTVIYEDNQRPSGVPDRFSGSIDSSSNSASLTISGLKTEDEADYYCQSYDSSNHVFGCGTKLTVLGGGGSGGGGSGGGGSGGGGSEVQLVESGGGLVQPGGSLRLSCAASGFTFSRYSMNWVRQAPGKCLEWVSYISSSSSSIYYADSVKGRFTISRDNAKNSLYLQMNSLRDEDTAVYYCARDRRATLDYWGQGTLVTVSSGGGGSDKTHTCPPCPAPEFEGGPSVFLFPPKPKDTLMISRTPEVTCVVVDVSHEDPEVKFNWYVDGVEVHNAKTKPREEQYNSTYRVVSVLTVLHQDWLNGKEYKCKVSNKALPASIEKTISKAKGQPREPQVYTLPPCREEMTKNQVSLWCLVKGFYPSDIAVEWESNGQPENNYKTTPPVLDSDGSFFLYSKLTVDKSRWQQGNVFSCSVMHEALHNHYTQKSLSLSPGK", "heavy": "EVQLVQSGAEVKKPGSSVKVSCKASGYTITDSNIHWVRQAPGQSLEWIGYIYPYNGGTDYNQKFKNRATLTVDNPTNTAYMELSSLRSEDTAFYYCVNGNPWLAYWGQGTLVTVSSASTKGPSVFPLAPSSKSTSGGTAALGCLVKDYFPEPVTVSWNSGALTSGVHTFPAVLQSSGLYSLSSVVTVPSSSLGTQTYICNVNHKPSNTKVDKRVEPKSCDKTHTCPPCPAPEFEGGPSVFLFPPKPKDTLMISRTPEVTCVVVDVSHEDPEVKFNWYVDGVEVHNAKTKPREEQYNSTYRVVSVLTVLHQDWLNGKEYKCKVSNKALPASIEKTISKAKGQPREPQVCTLPPSREEMTKNQVSLSCAVKGFYPSDIAVEWESNGQPENNYKTTPPVLDSDGSFFLVSKLTVDKSRWQQGNVFSCSVMHEALHNRFTQKSLSLSPGK", "light": "DIQLTQSPSTLSASVGDRVTITCRASESLDNYGIRFLTWFQQKPGKAPKLLMYAASNQGSGVPSRFSGSGSGTEFTLTISSLQPDDFATYYCQQTKEVPWSFGQGTKVEVKRTVAAPSVFIFPPSDEQLKSGTASVVCLLNNFYPREAKVQWKVDNALQSGNSQESVTEQDSKDSTYSLSSTLTLSKADYEKHKVYACEVTHQGLSSPVTKSFNRGEC"}, "B2": {"name": "CD3 × CD33-BspAb66 (bispecific antibody, human IgG1, kappa)", "scFv": "EVQLVESGGGLVQPGRSLRLSCAASGFTFDDYAMHWVRQAPGKGLEWVSGISWNSGSIGYADSVKGRFTISRDNAKNSLYLQMNSLRAEDTALYYCAKDSRGYGDYRLGGAYWGQGTLVTVSSGGGGSGGGGSGGGGSGGGGSEIVMTQSPATLSVSPGERATLSCRASQSVSSNLAWYQQKPGQAPRLLIYGASTRATGIPARFSGSGSGTEFTLTISSLQSEDFAVYYCQQYNNWPWTFGQGTKVEIKTSGPGGPDKTHTCPPCPAPEFEGGPSVFLFPPKPKDTLMISRTPEVTCVVVDVSHEDPEVKFNWYVDGVEVHNAKTKPREEQYNSTYRVVSVLTVLHQDWLNGKEYKCKVSNKALPASIEKTISKAKGQPREPQVYTLPPCREEMTKNQVSLWCLVKGFYPSDIAVEWESNGQPENNYKTTPPVLDSDGSFFLYSKLTVDKSRWQQGNVFSCSVMHEALHNHYTQKSLSLSPGK", "heavy": "B1 heavy", "light": "B1 light", "notes": "also called CD3δε-specific control antibody scFv-Fc knob/TM x gemtuzumab"}, "B3": {"name": "Control Humanized anti-CD3 (high affinity) scFv-Fc knob/TM x gemtuzumab (bispecific antibody)", "scFv": "EVQLVESGGGLVQPGGSLRLSCAASGFTFSTYAMNWVRQAPGKGLEWVGRIRSKYNNYATYYADSVKGRFTISRDDSKNTLYLQMNSLRAEDTAVYYCVRHGNFGDSYVSWFAYWGQGTLVTVSSGKPGSGKPGSGKPGSGKPGSQAVVTQEPSLTVSPGGTVTLTCGSSTGAVTTSNYANWVQQKPGKSPRGLIGGTNKRAPGVPARFSGSLLGGKAALTISGAQPEDEADYYCALWYSNHWVFGGGTKLTVLGGGGSDKTHTCPPCPAPEFEGGPSVFLFPPKPKDTLMISRTPEVTCVVVDVSHEDPEVKFNWYVDGVEVHNAKTKPREEQYNSTYRVVSVLTVLHQDWLNGKEYKCKVSNKALPASIEKTISKAKGQPREPQVYTLPPCREEMTKNQVSLWCLVKGFYPSDIAVEWESNGQPENNYKTTPPVLDSDGSFFLYSKLTVDKSRWQQGNVFSCSVMHEALHNHYTQKSLSLSPGK", "heavy": "B1 heavy", "light": "B1 light"}, "B4": {"name": "Control Humanized anti-CD3 (low affinity) scFv-Fc knob/TM x gemtuzumab (bispecific antibody)", "scFv": "B3 scFv with A113D", "heavy": "B1 heavy", "light": "B1 light"}, "B5": {"name": "ABL-CD3-45 (antibody, V domains shown)", "VH": "EVQLVESGGGLVQPGGSLRLSCAASGFTFSSYWMSWVRQAPGKGLEWVANIKEDGSEKYYVDSVKGRFTISRDNAKNSLYLQMNSLRAEDTAVYYCARERRTGYLDYWGQGTLVTVSS", "VL": "not shown", "notes": "Chimeric hybridoma mAb: human V, CH1, upper hinge; mouse middle hinge, CH2, CH3"}, "B6": {"name": "ABL-CD3-9 (antibody, V domains shown)", "VH": "EVQLVDSGGGLVKPGGSLRLSCAASGFTFSSYSMNWVRQAPGKGLEWVSSVNSRGSYIYYADSVKGRFTISRDNAKNSLYLQMNSLRADDTAVYYCARDRRELLLDYWGQGTLVTVSS", "VL": "SYELTQPPSVSVSPGQTARITCSGDALPKKYAYWYQQKSGQAPVLVIYEDSKRPSGIPERFSGSSSGTMATLTISGAQVEDEADYYCYSTDSSGNHCWVFGGGTKLTVL", "notes": "as for B5"}, "B7": {"name": "ABL-CD3-35 (antibody, V domains shown)", "VH": "B6 VH with D6E, N77D", "VL": "B6 VL", "notes": "as for B5"}, "B8": {"name": "Gemtuzumab (antibody, V domains shown)", "VH": "EVQLVQSGAEVKKPGSSVKVSCKASGYTITDSNIHWVRQAPGQSLEWIGYIYPYNGGTDYNQKFKNRATLTVDNPTNTAYMELSSLRSEDTAFYYCVNGNPWLAYWGQGTLVTVSS", "VL": "DIQLTQSPSTLSASVGDRVTITCRASESLDNYGIRFLTWFQQKPGKAPKLLMYAASNQGSGVPSRFSGSGSGTEFTLTISSLQPDDFATYYCQQTKEVPWSFGQGTKVEVKR", "notes": "the heavy chain entry carries the hole, H435R/Y436F and L234F/L235E/P331S changes, which the control may not have; also called anti-CD33 control antibody"}},
  "key": {"[1]": {"biological_target": "T1, CD3 on Jurkat wild-type cells (UniProt P07766 23-207; P04234 22-171; P09693 23-182)", "T1 construct": "whole, on cells; also called Jurkat WT", "T1 sequence (P07766 23-207, chain 1 of 3)": "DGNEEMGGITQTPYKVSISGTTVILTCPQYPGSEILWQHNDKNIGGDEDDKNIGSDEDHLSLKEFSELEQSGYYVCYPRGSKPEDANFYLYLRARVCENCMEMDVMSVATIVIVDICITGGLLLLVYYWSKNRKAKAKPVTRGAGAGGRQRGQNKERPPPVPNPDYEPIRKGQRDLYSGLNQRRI", "T1 sequence (P04234 22-171, chain 2 of 3)": "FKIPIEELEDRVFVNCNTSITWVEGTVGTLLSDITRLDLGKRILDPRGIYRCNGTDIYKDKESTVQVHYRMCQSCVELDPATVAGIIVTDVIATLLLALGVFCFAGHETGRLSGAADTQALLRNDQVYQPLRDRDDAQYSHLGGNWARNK", "T1 sequence (P09693 23-182, chain 3 of 3)": "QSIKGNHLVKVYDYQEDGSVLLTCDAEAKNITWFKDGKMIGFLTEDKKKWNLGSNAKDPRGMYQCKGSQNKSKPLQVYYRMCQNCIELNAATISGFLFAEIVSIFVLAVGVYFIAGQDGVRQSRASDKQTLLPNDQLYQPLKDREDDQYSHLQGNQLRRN", "test": "flow cytometry on Jurkat WT cells, antibody at 10 ug/ml"}, "[2]": {"biological_target": "T1, CD3 on Jurkat wild-type cells", "test": "flow cytometry on Jurkat WT cells, antibody at 1 ug/ml"}, "CD33 on KILR-HL60 cells [3]": {"biological_target": "T2, CD33 on KILR-HL60 cells (UniProt P20138 18-364, limits assumed)", "T2 construct": "whole, on cells; Target of the gemtuzumab arm; also called CD33 expressing cells", "T2 sequence (P20138 18-364 limits assumed)": "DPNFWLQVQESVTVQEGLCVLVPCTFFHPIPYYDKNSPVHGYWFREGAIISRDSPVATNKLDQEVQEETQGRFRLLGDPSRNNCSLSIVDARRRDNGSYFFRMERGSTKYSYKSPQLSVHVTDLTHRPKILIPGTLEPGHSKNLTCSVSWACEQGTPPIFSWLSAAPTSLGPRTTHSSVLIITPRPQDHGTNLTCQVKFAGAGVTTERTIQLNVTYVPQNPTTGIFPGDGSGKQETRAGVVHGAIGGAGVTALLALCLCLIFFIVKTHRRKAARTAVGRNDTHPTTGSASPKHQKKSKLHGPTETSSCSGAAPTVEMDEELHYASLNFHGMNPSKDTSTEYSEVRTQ", "test": "flow cytometry on KILR-HL60 (CD33 expressing) cells, antibody at 1 ug/ml"}, "CD33 on KILR-HL60 cells [4]": {"biological_target": "T2, CD33 on KILR-HL60 cells", "test": "flow cytometry on KILR-HL60 (CD33 expressing) cells, antibody at 10 ug/ml"}, "[5]": {"biological_target": "T3, recombinant human CD3 epsilon/gamma heterodimer (human, UniProt P07766 23-126; P09693 23-116)", "T3 construct": "Recombinant protein in solution (200-50 nM) in the Octet assay; also called hCD3 E/G", "T3 sequence (P07766 23-126, chain 1 of 2)": "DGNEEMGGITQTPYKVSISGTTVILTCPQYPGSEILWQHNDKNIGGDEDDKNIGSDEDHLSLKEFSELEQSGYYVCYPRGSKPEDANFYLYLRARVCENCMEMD", "T3 sequence (P09693 23-116, chain 2 of 2)": "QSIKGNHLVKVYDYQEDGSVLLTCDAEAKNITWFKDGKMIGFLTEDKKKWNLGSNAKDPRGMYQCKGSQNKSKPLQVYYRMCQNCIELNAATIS", "test": "Octet BLI, mAb on FAB2G sensor, hCD3 E/G 200-50 nM; R^2 0.84", "procedure": "(§1) Samples were evaluated by flow cytometry analysis against Jurkat and human Pan-T cells (FIG. 1B) as well as by Octet against recombinant human CD3 proteins to evaluate apparent affinities and binding off-rates (Table 6, infra)."}, "[6]": {"biological_target": "T4, recombinant human CD3 epsilon/delta heterodimer (human, UniProt P07766 23-126; P04234 22-105)", "T4 construct": "Recombinant protein in solution (200-50 nM) in the Octet assay; also called hCD3 E/D; human CD3E/D", "T4 sequence (P07766 23-126, stated change not applied, chain 1 of 2)": "as the sequence (P07766 23-126, chain 1 of 2) above", "T4 sequence (P04234 22-105, stated change not applied, chain 2 of 2)": "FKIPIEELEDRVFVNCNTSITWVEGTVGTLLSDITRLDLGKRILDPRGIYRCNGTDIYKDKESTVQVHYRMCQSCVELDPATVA", "test": "Octet BLI, mAb on FAB2G sensor, hCD3 E/D 200-50 nM; R^2 1.00"}, "[7]": {"biological_target": "T4, recombinant human CD3 epsilon/delta …", "test": "Octet BLI, mAb on FAB2G sensor, hCD3 E/D 200-50 nM; R^2 0.99"}, "[8]": {"biological_target": "T4, recombinant human CD3 epsilon/delta …", "test": "Octet BLI, mAb on FAB2G sensor, hCD3 E/D 200-50 nM; R^2 0.97", "procedure": "as §1"}},
  "note": "Where a chain is given by its changes, count along the chain named. Names and notes keep the numbering of the source.",
  "data": [
    {"binder": "B1", "values": [
      {"measurement": "flow cytometry signal", "setting": "[1]", "result": 59000},
      {"measurement": "flow cytometry signal", "setting": "[2]", "result": 62500},
      {"measurement": "flow cytometry signal", "setting": "CD33 on KILR-HL60 cells [3]", "result": 295000},
      {"measurement": "flow cytometry signal", "setting": "CD33 on KILR-HL60 cells [4]", "result": 595000}
    ]},
    {"binder": "B2", "values": [
      {"measurement": "flow cytometry signal", "setting": "[1]", "result": 23100},
      {"measurement": "flow cytometry signal", "setting": "[2]", "result": 6660},
      {"measurement": "flow cytometry signal", "setting": "CD33 on KILR-HL60 cells [3]", "result": 569000},
      {"measurement": "flow cytometry signal", "setting": "CD33 on KILR-HL60 cells [4]", "result": 499000}
    ]},
    {"binder": "B3", "values": [
      {"measurement": "flow cytometry signal", "setting": "[1]", "result": 38400},
      {"measurement": "flow cytometry signal", "setting": "[2]", "result": 37900},
      {"measurement": "flow cytometry signal", "setting": "CD33 on KILR-HL60 cells [3]", "result": 544000},
      {"measurement": "flow cytometry signal", "setting": "CD33 on KILR-HL60 cells [4]", "result": 648000}
    ]},
    {"binder": "B4", "values": [
      {"measurement": "flow cytometry signal", "setting": "[1]", "result": 3230},
      {"measurement": "flow cytometry signal", "setting": "[2]", "result": 2620},
      {"measurement": "flow cytometry signal", "setting": "CD33 on KILR-HL60 cells [3]", "result": 535000},
      {"measurement": "flow cytometry signal", "setting": "CD33 on KILR-HL60 cells [4]", "result": 623000}
    ]},
    {"binder": "B5", "values": [
      {"measurement": "Kd", "setting": "[5]", "result": 15.8, "unit": "nM"},
      {"measurement": "Response", "setting": "[5]", "result": 0.03},
      {"measurement": "koff", "setting": "[5]", "result": 0.00375, "unit": "s⁻¹"},
      {"measurement": "kon", "setting": "[5]", "result": 237000, "unit": "M⁻¹ s⁻¹"},
      {"measurement": "Kd", "setting": "[6]", "result": 13.7, "unit": "nM"},
      {"measurement": "Response", "setting": "[6]", "result": 0.2},
      {"measurement": "koff", "setting": "[6]", "result": 0.000475, "unit": "s⁻¹"},
      {"measurement": "kon", "setting": "[6]", "result": 34600, "unit": "M⁻¹ s⁻¹"}
    ]},
    {"binder": "B6", "values": [
      {"measurement": "Kd", "setting": "[5]", "result": 110, "unit": "nM"},
      {"measurement": "Response", "setting": "[5]", "result": 0.1},
      {"measurement": "koff", "setting": "[5]", "result": 0.114, "unit": "s⁻¹"},
      {"measurement": "kon", "setting": "[5]", "result": "1.04e+06", "unit": "M⁻¹ s⁻¹"},
      {"measurement": "Kd", "setting": "[7]", "result": 70.8, "unit": "nM"},
      {"measurement": "Response", "setting": "[7]", "result": 0.34},
      {"measurement": "koff", "setting": "[7]", "result": 0.0393, "unit": "s⁻¹"},
      {"measurement": "kon", "setting": "[7]", "result": 555000, "unit": "M⁻¹ s⁻¹"}
    ]},
    {"binder": "B7", "values": [
      {"measurement": "Kd", "setting": "[8]", "result": 54.7, "unit": "nM"},
      {"measurement": "Response", "setting": "[8]", "result": 0.36},
      {"measurement": "koff", "setting": "[8]", "result": 0.0271, "unit": "s⁻¹"},
      {"measurement": "kon", "setting": "[8]", "result": 495000, "unit": "M⁻¹ s⁻¹"},
      {"measurement": "Kd", "setting": "[5]", "result": 14.2, "unit": "nM"},
      {"measurement": "Response", "setting": "[5]", "result": 0.12},
      {"measurement": "koff", "setting": "[5]", "result": 0.0144, "unit": "s⁻¹"},
      {"measurement": "kon", "setting": "[5]", "result": "1.02e+06", "unit": "M⁻¹ s⁻¹"}
    ]},
    {"binder": "B8", "values": [
      {"measurement": "flow cytometry signal", "setting": "[1]", "result": 2570},
      {"measurement": "flow cytometry signal", "setting": "[2]", "result": 2570},
      {"measurement": "flow cytometry signal", "setting": "CD33 on KILR-HL60 cells [3]", "result": 321000},
      {"measurement": "flow cytometry signal", "setting": "CD33 on KILR-HL60 cells [4]", "result": 351000}
    ]}
  ]
}
